# From patent publication US20040053206A1 (DYAX, published 2004)
# B1: KKII/3#6 (designed binder)
# chain: MHSFCAFKADDGHCKANHQRFFFNIFTRQCEEFSYGGCGGNQNRFESLEECKKMCTRD
# notes: also called LACI(K1) variant
# B2: KKII/3#9 (designed binder)
# chain: MHSFCAFKADDGHCKANHQRFFFNIFTRQCEEFSYGGCGGNQNRFESLEECKKMCTRD
# notes: also called LACI(K1) variant
# B3: KKII/3#10 (designed binder)
# chain: MHSFCAFKADDGHCKGAHLRFFFNIFTRQCEEFIYGGCEGNQNRFESLEECKKMCTRD
# notes: also called LACI(K1) variant
# B4: KKII/3#3 (designed binder)
# chain: MHSFCAFKADDGHCKANHQRFFFNIFTRQCEEFTYGGCGGNQNRFESLEECKKMCTRD
# notes: also called LACI(K1) variant
# B5: KKII/3#1 (designed binder)
# chain: MHSFCAFKADDGHCKASLPRFFFNIFTRQCEEFIYGGCEGNQNRFESLEECKKMCTRD
# notes: also called LACI(K1) variant
# B6: KKII/3#4 (designed binder)
# chain: MHSFCAFKADDGHCKANHQRFFFNIFTRQCEQFTYGGCAGNQNRFESLEECKKMCTRD
# notes: also called LACI(K1) variant
# B7: KKII/3#2 (designed binder)
# chain: MHSFCAFKADDGPCKANHLRFFFNIFTRQCEEFSYGGCGGNQNRFESLEECKKMCTRD
# notes: also called LACI(K1) variant
# B8: KKII/3#5 (designed binder)
# chain: MHSFCAFKADDGHCKASLPRFFFNIFTRQCEEFIYGGCGGNQNRFESLEECKKMCTRD
# notes: also called LACI(K1) variant
# B9: PEP-1 KI polypeptide (designed binder)
# chain: EAMHSFCAFKADDGPCRAAHPRWFFNIFTRQCEEFIYGGCEGNQNRFESLEECKKMCTRD
# notes: also called DX88
# Key:
# human plasma kallikrein [1] = target: T1, human plasma kallikrein (human, UniProt P03952 20-638); test: phage display selection
# T1 sequence (P03952 20-638 limits assumed): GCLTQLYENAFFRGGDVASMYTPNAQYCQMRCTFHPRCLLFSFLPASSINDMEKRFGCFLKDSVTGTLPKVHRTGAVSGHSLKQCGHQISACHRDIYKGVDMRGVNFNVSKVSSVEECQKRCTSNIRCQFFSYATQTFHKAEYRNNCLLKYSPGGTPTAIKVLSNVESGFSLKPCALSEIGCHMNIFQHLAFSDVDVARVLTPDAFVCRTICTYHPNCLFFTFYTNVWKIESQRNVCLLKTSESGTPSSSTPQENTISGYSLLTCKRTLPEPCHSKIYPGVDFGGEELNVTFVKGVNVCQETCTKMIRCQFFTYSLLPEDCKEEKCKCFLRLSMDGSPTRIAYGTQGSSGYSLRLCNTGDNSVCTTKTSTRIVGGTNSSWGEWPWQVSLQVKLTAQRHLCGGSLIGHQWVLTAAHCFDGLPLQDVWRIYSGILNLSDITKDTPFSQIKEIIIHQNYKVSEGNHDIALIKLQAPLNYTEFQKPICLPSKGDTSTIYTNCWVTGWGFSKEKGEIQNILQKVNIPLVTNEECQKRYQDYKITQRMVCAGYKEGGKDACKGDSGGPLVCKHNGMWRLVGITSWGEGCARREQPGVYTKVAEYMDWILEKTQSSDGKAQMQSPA
# human plasma factor XIa = human plasma factor XIa (human, UniProt P03951 19-625); test: protease inhibition, apparent Ki (Ki,app)
# human plasma kallikrein [2] = target: T1, human plasma kallikrein; test: protease inhibition, apparent Ki (Ki,app)
# human plasmin = human plasmin (human, UniProt P00747 97-810, limits assumed); test: protease inhibition, apparent Ki (Ki,app)
# Chain of human plasmin (P00747 97-810 limits assumed): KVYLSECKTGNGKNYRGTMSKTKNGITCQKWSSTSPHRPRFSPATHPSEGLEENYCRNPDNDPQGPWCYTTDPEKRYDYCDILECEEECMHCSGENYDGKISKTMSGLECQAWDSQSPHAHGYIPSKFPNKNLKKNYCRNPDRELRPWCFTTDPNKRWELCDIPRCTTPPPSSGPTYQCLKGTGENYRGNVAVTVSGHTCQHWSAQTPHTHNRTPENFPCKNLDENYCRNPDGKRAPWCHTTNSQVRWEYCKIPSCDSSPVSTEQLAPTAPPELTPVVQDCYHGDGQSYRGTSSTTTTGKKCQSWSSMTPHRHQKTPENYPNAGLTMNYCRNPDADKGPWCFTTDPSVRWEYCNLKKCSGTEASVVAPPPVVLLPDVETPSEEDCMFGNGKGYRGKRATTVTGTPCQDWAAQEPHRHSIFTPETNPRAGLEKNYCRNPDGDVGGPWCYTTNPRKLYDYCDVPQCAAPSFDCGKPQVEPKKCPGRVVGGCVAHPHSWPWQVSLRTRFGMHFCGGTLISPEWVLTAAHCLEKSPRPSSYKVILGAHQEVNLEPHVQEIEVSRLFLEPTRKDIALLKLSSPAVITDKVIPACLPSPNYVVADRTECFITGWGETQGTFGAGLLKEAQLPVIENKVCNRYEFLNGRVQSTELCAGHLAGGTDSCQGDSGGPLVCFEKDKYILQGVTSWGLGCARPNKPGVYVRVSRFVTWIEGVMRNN
# [3] = target: porcine pancreatic kallikrein (porcine, UniProt P00752 8-246); test: protease inhibition, apparent Ki (Ki,app)
# Chain of porcine pancreatic kallikrein (P00752 8-246): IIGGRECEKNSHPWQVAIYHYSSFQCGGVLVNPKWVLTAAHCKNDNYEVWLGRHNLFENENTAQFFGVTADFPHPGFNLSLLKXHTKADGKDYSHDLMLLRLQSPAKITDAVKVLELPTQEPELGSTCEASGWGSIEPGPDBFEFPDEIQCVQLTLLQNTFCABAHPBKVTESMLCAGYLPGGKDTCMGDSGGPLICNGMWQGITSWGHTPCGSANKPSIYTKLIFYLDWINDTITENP
# human plasma kallikrein [4] = target: T1, human plasma kallikrein; test: comparison of Ki,app values, reference aprotinin
Binder,binding result (human plasma kallikrein [1]),further results
B1,binds,
B2,binds,
B3,binds,
B4,binds,
B5,binds,
B6,binds,
B7,binds,
B8,binds,
B9,,"Ki (human plasma factor XIa): 10 nM; Ki (human plasma kallikrein [2]): 0.044 nM; Ki (human plasmin): 140 nM; Ki [3]: 27000 nM; fold higher affinity (Ki,app) than aprotinin (human plasma kallikrein [4]): 1000 fold"
